Data as given in article PMC5603418 (The FEBS journal, 2017).

What was measured:
[1] = target: T1, Bdellovibrio bacteriovorus proline utilization A (BbPutA) (Bdellovibrio bacteriovorus, UniProt Q6MNK1); experiment: X-ray crystal structure, […] Å, of the covalently inactivated enzyme; type: binding
T1 sequence (Q6MNK1 1-982): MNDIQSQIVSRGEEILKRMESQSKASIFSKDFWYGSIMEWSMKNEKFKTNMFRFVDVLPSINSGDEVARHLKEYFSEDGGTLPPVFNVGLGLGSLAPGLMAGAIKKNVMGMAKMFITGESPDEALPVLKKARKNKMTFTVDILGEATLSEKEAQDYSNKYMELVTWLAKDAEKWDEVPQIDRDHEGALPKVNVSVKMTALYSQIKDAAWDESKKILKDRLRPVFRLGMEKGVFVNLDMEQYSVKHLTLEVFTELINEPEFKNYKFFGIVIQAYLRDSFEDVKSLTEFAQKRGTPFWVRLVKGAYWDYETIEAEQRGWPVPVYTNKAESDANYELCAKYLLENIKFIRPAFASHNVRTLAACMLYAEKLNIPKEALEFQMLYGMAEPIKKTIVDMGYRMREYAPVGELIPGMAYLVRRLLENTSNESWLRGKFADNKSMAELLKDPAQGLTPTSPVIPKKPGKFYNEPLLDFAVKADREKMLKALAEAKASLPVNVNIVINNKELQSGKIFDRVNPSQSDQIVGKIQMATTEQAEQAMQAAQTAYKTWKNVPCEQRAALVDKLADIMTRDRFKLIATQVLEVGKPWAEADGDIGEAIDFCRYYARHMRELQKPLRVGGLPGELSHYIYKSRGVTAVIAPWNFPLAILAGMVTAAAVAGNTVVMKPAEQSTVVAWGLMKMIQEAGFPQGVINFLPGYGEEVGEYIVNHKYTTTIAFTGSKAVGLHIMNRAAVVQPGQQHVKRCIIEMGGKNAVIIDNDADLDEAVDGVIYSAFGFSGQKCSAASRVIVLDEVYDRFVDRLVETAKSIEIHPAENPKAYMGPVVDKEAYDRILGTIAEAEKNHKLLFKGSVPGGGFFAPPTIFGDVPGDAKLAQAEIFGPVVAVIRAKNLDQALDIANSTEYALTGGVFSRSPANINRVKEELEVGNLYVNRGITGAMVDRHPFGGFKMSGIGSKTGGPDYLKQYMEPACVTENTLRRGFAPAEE

[2] = target: Desulfovibrio vulgaris proline utilization A (Desulfovibrio vulgaris str. Hildenborough); experiment: SAXS
AUC [3] = target: the molecule itself; experiment: AUC
SAXS = target: the molecule itself; experiment: SAXS
AUC [4] = target: the molecule itself; experiment: AUC; remark: listed apart in the source

For `C#CCNCC(=O)O` [compound 1, N-propargylglycine], the “X-ray crystal structure, 2.2 Å, of the covalently inactivated enzyme” value [1] was 3-carbon link between Lys196 and the N5 of the FAD consistent with the presence of a covalent NPPG modification.

Molecule “Desulfovibrio vulgaris proline utilization A (enzyme)” has a stoichiometry N [2] of 2.

B1: Bradyrhizobium japonicum proline utilization A (enzyme, UniProt Q89E26 1-999, looked up)
chain: MPNIPPPFTAPYAPDDAEIAARLLPASHLSPPQEARIHRTATRLIEAIRKRDDRLGGVEDMLREFALSTKEGLALMVLAEALLRVPDARTADQFIEDKLGEGDFIHHETKSTAFLVNASAWALGLSARVIQPGETPDGTIGRLVKRLGAPAVRTATRQAMRLMGNHFVLGETIEQALERGKPRSGQKTRYSFDMLGEGARTAADARRYFDAYASAIETIGKAAGNHALPDRPGISVKLSALHPRFEAISRARVMVELVPQLLDLAQRAKAHDLNFTVDAEEADRLELSLDVIAATLADPSLKGWDGFGLAIQAYQKRASAVIDYVDALARAHDRKLMVRLVKGAYWDTEIKRAQERGLDGYPVFTRKAMTDLNYVACASKLLALRPRIFPQFATHNALTVATVLEMAEGSSGFEFQRLHGMGEALYEQLAKDHADIAYRTYAPVGSHRDLLAYLVRRLLENGANSSFVAQAADYRVPVPALLQRPADAIVRPQAAAHPRIPLPCDLFAPERRNSRGVEFGARTALDQLLTDVKAETGDLKPIADATPDQAHAAVAAARAGFAGWSRTPAGIRAAALEQAAHLLESRSAHFIALLQREGGKTLDDALSELREAADFCRYYAAQGRKLFGSETAMPGPTGESNALTMRGRGVFVAISPWNFPLAIFLGQVTAALMAGNSVVAKPAEQTPRIAREAVALLHEAGIPKSALYLVTGDGRIGAALTAHPDIAGVVFTGSTEVARSINRALAAKDGPIVPLIAETGGINAMIADATALPEQVADDVVTSAFRSAGQRCSALRLLFVQEDVADRMIEMVAGAARELKIGDPSDVATHVGPVIDVEAKQRLDAHIARMKTEARLHFAGPAPEGCFVAPHIFELTEAGQLTEEVFGPILHVVRYRPENLERVLRAIERTGYGLTLGVHSRIDDSIEAIIDRVQVGNIYVNRNMIGAVVGVQPFGGNGLSGTGPKAGGPHYLARFATEQTVTINTAAAGGNAALLAGEE
With B1 the “stoichiometry N” value (AUC [3]) was 4.

B2: Bdellovibrio bacteriovorus proline utilization A (enzyme, Bdellovibrio bacteriovorus HD100, UniProt Q6MNK1 1-982, looked up)
chain: T1 sequence (Q6MNK1 1-982)
In the case of B2, the “stoichiometry N” value (SAXS) is reported as 2.

B3: Bdellovibrio bacteriovorus proline utilization A inactivated by N-propargylglycine (enzyme, Bdellovibrio bacteriovorus HD100, UniProt Q6MNK1 1-982, looked up)
chain: T1 sequence (Q6MNK1 1-982)
modifications: Lys196 covalently linked to the N5 atom of the FAD by a 3-carbon link (inactivation by N-propargylglycine)
For B3, the “stoichiometry N” value (AUC [4]) was 2.
